Measurements from patent US20190185562A1 (Regeneron, published 2019).

Experiments:
[1] = target: T1, full length (FL) human gp130 over-expressed on HEK293/Stat3-luc/gp130-2X Sort cells (human, UniProt P40189 23-918); test: FACS, 10 nM mAb, 293/Stat3-luc/GP130 2X sort cells
T1 construct: whole, on cells
T1 sequence (looked up): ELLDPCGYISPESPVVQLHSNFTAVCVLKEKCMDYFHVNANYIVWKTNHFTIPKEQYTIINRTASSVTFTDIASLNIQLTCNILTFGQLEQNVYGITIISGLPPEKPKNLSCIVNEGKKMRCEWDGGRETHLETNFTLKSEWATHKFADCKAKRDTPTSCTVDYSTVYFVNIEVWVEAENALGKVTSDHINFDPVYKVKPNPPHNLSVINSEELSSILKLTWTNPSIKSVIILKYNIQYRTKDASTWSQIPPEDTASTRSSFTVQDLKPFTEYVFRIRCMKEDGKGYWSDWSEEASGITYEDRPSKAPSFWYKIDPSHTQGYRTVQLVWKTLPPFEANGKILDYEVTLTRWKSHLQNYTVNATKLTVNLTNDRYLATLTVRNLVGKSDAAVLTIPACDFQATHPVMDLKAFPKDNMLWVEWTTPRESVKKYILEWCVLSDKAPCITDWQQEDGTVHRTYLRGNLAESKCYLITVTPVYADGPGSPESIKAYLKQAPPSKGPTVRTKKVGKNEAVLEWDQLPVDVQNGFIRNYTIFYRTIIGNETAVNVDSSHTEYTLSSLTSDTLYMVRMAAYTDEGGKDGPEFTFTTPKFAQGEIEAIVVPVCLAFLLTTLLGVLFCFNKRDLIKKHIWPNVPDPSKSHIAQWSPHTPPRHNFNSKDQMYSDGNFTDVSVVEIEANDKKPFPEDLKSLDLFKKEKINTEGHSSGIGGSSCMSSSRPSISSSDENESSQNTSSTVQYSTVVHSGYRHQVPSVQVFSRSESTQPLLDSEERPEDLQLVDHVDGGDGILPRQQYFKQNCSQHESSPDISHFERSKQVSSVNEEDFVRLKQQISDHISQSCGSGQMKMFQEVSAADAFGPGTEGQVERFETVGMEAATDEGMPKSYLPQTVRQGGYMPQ
Excerpt: (§1) In order to assess cell binding by anti-GP130 antibodies of the invention two cell lines were generated. One cell line generated was HEK293 cells stably over-expressing full length (FL) human gp130 (amino acids 1-918 of accession # P40189 with leucine at position 2 changed to valine, a natural variant) along with a luciferase reporter (Stat3-luciferase, Stat3-luc, SA Bioscience, #CLS-6028L). The cells were sorted twice using flow cytometry for high expression of gp130. It is known hereafter as HEK293/Stat3-luc/gp130-2X Sort. IMR-32 cells (human Neuroblastoma, ATCC), were also evaluated for cell binding as these cells express gp130 endogenously and were used for bioassays. The cells used for binding were generated to stably express a luciferase reporter (Stat3-luciferase, Stat3-luc, SA Bioscience, #CLS-6028L), and are referred to hereafter as IMR-32/STAT3-Luc cells.
(§2) For the FACS analysis, 10 nM of the antibodies were used to stain 0.5×10^6 cells/well of each cell type at 4° C. in PBS (without calcium and magnesium) containing 2% FBS for 30 minutes. IMR-32/STAT3-luc cells were incubated with 1 mg/mL mouse IgG for 30 minutes at 4° C. to block Fc receptors prior to adding the antibodies. To test whether the anti-gp130 antibody binding is specific for gp130 on the IMR-32 cells, antibodies were added to IMR-32/Stat3-luc cells with or without being pre-bound to 1000 nM of recombinant protein of the ecto-domain of human gp130 fused to myc-myc-his tag (hgp130.mmh) for 30 minutes at 25° C. […] Cells were fixed using BD CytoFix™ (Becton Dickinson, #554655) and analyzed on an IQue® (Intellicyt®) Flow Cytometer. Unstained and secondary antibody alone controls were also tested for all cell lines. The results were analyzed using ForeCyt® (IntelliCyt®) software to determine the geometric means of fluorescence for viable cells.

[2] = target: T2, human gp130 expressed endogenously on IMR-32/Stat3-luc cells (human, UniProt P40189 23-918); test: FACS, 10 nM mAb, IMR-32/Stat3-luc cells, no hGP130.mmh
T2 construct: whole, on cells
T2 sequence (looked up): T1 sequence (looked up)
Excerpt: as §1, §2

[3] = target: T2, human gp130 expressed endogenously on …; test: FACS, 10 nM mAb, IMR-32/Stat3-luc cells, competitor 1 uM hGP130.mmh
Excerpt: as §1, §2

[4] = target: T3, human gp130 extracellular domain with the Fc portion of mouse IgG2a at the C-terminus (human); test: blocking ELISA, 2.5 nM hGP130-mFc to plate-bound CNTFR/CNTF complex; * below the lower limit of quantitation of 1.25E-09 M
T3 construct: Dimeric; also called hGP130-mFc; dimeric GP130 protein
T3 chain: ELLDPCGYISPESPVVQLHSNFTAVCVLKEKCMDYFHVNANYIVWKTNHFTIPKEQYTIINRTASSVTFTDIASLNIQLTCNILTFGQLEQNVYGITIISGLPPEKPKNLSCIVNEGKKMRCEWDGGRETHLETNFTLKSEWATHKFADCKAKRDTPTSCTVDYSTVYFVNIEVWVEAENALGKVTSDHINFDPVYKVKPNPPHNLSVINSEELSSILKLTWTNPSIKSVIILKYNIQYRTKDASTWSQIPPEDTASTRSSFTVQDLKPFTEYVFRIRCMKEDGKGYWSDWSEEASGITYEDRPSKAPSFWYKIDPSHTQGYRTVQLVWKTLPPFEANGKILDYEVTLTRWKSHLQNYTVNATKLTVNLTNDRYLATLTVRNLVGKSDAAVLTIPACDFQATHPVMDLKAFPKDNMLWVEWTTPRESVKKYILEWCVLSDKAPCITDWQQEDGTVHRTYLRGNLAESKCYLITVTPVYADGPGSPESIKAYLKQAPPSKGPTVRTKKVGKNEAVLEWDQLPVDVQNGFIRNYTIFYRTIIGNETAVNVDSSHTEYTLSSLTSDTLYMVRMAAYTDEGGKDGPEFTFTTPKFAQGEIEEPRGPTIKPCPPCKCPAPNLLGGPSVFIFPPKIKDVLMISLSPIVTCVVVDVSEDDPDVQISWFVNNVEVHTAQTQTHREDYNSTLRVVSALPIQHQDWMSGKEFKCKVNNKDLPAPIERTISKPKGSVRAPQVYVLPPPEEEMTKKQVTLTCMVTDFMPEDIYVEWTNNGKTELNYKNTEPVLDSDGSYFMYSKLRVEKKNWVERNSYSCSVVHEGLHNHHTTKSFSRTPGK
Protocol: The experiment was carried out using the following procedure. Human CNTFRα was coated at a concentration of […] in HBSS on a 96-well microtiter plate overnight at 4° C. […] Human CNTF at a concentration of 1 μg/ml in HBSS was added to the plate bound CNTFRα for 1 hour at room temperature. In separate dilution plates, a constant amount of 2.5 nM of human GP130-mFc protein was titrated with antibodies ranging from 3.4 pM to 200 nM in serial dilution and with no antibody present. These solutions were incubated for 1 hour at room temperature (RT) and subsequently transferred to the microtiter plates with CNTFRα/CNTF complex without washing. The plates were incubated for 2 hours at RT, washed with PBST buffer, and plate-bound hGP130-mFc was detected with an anti-mFc polyclonal antibody conjugated with horseradish peroxidase (HRP) (Jackson ImmunoResearch Inc). Samples were developed with a TMB solution (BD Biosciences, substrate A and B mixed at 1:1 ratio as per manufacturer's instructions) to produce a colorimetric reaction and then neutralized with 1M sulfuric acid before measuring absorbance at 450 nm on a Victor ×5 plate reader.

MFI - Normalized to Unstained Control [1]: 159 | MFI - Normalized to Unstained Control [2]: 23 | MFI - Normalized to Unstained Control [3]: 8 | IC50 [4]: < 1.25 nM
B1: MAb16666 (antibody, V domains shown)
VH: EVQLVESGGGLVQSGGSLRLSCAASGFTFSRYEMNWVRQAPGKGLEWVAYISNTGTTRDYSDSVKGRFTISRDNAKNSLYLQMSSLRVEDTAVYYCVREKFSGTSDWFDPWGQGTLVTVSS
VL: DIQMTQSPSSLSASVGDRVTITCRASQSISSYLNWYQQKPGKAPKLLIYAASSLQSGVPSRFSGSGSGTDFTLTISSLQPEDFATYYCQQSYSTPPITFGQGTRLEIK
notes: Variable domains only
